Data from patent publication US20250171534A1 (D2M BIOTHERAPEUTICS, published 2025).
“And” between values parts separate entries of the source, which are not always exact repeats. Equal entries are not always repeated.

What was measured:
[1] = biological target: T1, LILRB3 expressed on cells (human, UniProt O75022 24-631); test: flow cytometry on CHO-LILRB3 cells
T1 construct: whole, on cells; Expressed with a GFP tag from the bought plasmid; also called human LILRB3; CHO-LILRB3

[2] = biological target: T2, LILRB2-ECD-HIS (SinoBiological Cat #: 14132-H02H) (human, UniProt Q8N423 22-460); test: BLI (Gator), RB2-ECD-his
T2 construct: Bought protein; also called monomeric antigen LILRB2-ECD-HIS; not shown: His tag

[3] = biological target: T3, cynomolgus monkey putative LILRB2 (antigen of the Gator measurement) (cynomolgus monkey); test: BLI (Gator), cyno RB2-his
T3 construct: also called cynomolgus monkey LILRB2

[4] = biological target: T4, cynomolgus (monkey) LILRB2 expressed on CHO cells (cynomolgus monkey); test: flow cytometry on CHO-cynoLILRB2 cells
T4 construct: whole, on cells; Putative orthologue; also called cynoLILRB2; cynoRB2

[5] = biological target: T5, human LILRB1 expressed on cells (human, UniProt Q8NHL6 24-650); test: flow cytometry, CHO-LILRB1 cells
T5 construct: In 293T cells it was expressed from pCMV3-LILRB1-GFP; also called CHO-LILRB1; Jurkat-LILRB1

[6] = biological target: T5, human LILRB1 expressed on cells; test: flow cytometry, CHO-LILRB1 cells; remark: listed apart in the source
[7] = biological target: T6, human LILRB2 expressed on cells (human, UniProt Q8N423 22-597); test: flow cytometry, CHO-LILRB2 cells
T6 construct: In 293T cells it was expressed from pCMV3-LILRB2-GFP; also called CHO-LILRB2; Jurkat-LILRB2

[8] = biological target: T6, human LILRB2 expressed on cells; test: flow cytometry, Jurkat-LILRB2 cells
[9] = biological target: T7, LILRB1-ECD-HIS (SinoBiological Cat #: 16014-H02H) (human, UniProt Q8NHL6 24-461); test: BLI (Gator), trace labelled 2 µg/mL; unit taken from the Average KD line
T7 construct: Bought protein; also called monomeric antigen LILRB1-ECD-HIS; not shown: His tag

[10] = biological target: T2, LILRB2-ECD-HIS (SinoBiological Cat #: …); test: as above
[11] = biological target: T2, LILRB2-ECD-HIS (SinoBiological Cat #: …); test: BLI (Gator), trace labelled 5 µg/mL; unit taken from the Average KD line
[12] = biological target: T7, LILRB1-ECD-HIS (SinoBiological Cat #: …); test: BLI (Gator), trace labelled 0.5 µg/mL; unit taken from the Average KD line
[13] = biological target: T2, LILRB2-ECD-HIS (SinoBiological Cat #: …); test: BLI (Gator Prime), antibody on anti-hIgG Fc probe, monomeric LILRB2-ECD-HIS in solution
[14] = biological target: T5, human LILRB1 expressed on cells; test: flow cytometry on CHO-LILRB1 cells, non-linear fit of the curves of FIG. 26A
[15] = biological target: T6, human LILRB2 expressed on cells; test: flow cytometry on CHO-LILRB2 cells, non-linear fit of the curves of FIG. 26B
[16] = biological target: T4, cynomolgus (monkey) LILRB2 expressed on …; test: flow cytometry on CHO-cynoLILRB2 cells, non-linear fit of the curves of FIG. 26D
[17] = biological target: T6, human LILRB2 expressed on cells; test: flow cytometry, Jurkat-LILRB2 cells; blocked ligand: APC HLA-G monomer tetramer
[18] = biological target: T6, human LILRB2 expressed on cells; test: as above; remark: listed apart in the source
[19] = biological target: T5, human LILRB1 expressed on cells; test: flow cytometry on CHO-LILRB1 cells (CHO-RB1), titrated antibody, labelled anti-human Fc, gMFI
[20] = biological target: T8, LILRA1 expressed on cells (human, UniProt O75019 17-489); test: flow cytometry on CHO-LILRA1 cells (CHO-RA1), titrated antibody, labelled anti-human Fc, gMFI
T8 construct: whole, on cells; GFP-tagged; also called human LILRA1; CHO-LILRA1

[21] = biological target: T9, LILRB5 expressed on 293T cells (UniProt O75023 24-590, limits assumed); test: flow cytometry on 293T cells transiently expressing LILRB5, APC anti-human Fc; gMFI as fold to IgG staining
T9 construct: whole, on cells; GFP-tagged, transient

[22] = biological target: T10, LILRA5 expressed on 293T cells (UniProt A6NI73 42-299, limits assumed); test: flow cytometry on 293T cells transiently expressing LILRA5, APC anti-human Fc; gMFI as fold to IgG staining
T10 construct: whole, on cells; GFP-tagged, transient

[23] = biological target: T11, LILRA4 expressed on 293T cells (UniProt P59901 24-499, limits assumed); test: flow cytometry on 293T cells transiently expressing LILRA4, antibody 5 µg/mL, APC anti-human Fc; gMFI as fold to IgG staining
T11 construct: whole, on cells; GFP-tagged, transient
T11 sequence (P59901 24-499 limits assumed): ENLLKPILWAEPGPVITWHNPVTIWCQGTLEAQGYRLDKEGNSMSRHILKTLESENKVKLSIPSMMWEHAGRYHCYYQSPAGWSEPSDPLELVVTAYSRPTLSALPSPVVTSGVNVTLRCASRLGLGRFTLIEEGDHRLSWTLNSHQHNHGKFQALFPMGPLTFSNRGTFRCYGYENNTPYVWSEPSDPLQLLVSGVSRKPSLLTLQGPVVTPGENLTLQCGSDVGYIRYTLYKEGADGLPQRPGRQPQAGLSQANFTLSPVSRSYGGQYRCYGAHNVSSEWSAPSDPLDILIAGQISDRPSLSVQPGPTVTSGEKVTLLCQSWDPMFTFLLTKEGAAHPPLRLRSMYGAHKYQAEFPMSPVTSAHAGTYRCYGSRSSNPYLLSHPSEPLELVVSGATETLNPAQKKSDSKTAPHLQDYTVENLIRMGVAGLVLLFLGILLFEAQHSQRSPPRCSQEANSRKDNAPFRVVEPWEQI

T6 sequence (Q8N423 other isoform, or with tags, fused parts or gaps limits assumed): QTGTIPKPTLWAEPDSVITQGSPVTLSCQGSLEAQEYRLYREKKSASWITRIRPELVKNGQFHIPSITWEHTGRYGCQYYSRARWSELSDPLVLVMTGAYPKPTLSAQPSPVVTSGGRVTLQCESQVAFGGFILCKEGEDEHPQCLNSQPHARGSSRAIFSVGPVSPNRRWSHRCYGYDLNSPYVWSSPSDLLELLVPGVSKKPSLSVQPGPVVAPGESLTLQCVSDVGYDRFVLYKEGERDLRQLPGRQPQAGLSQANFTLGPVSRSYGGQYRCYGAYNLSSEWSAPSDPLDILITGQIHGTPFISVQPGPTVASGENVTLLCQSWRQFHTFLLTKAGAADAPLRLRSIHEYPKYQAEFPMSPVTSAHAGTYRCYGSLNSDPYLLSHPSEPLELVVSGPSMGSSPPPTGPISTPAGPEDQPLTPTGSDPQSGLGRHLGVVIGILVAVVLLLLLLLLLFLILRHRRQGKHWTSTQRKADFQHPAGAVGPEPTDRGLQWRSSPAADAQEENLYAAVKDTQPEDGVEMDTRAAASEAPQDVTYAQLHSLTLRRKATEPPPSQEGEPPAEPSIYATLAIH
T2 sequence (Q8N423 other isoform, or with tags, fused parts or gaps H02H H02H): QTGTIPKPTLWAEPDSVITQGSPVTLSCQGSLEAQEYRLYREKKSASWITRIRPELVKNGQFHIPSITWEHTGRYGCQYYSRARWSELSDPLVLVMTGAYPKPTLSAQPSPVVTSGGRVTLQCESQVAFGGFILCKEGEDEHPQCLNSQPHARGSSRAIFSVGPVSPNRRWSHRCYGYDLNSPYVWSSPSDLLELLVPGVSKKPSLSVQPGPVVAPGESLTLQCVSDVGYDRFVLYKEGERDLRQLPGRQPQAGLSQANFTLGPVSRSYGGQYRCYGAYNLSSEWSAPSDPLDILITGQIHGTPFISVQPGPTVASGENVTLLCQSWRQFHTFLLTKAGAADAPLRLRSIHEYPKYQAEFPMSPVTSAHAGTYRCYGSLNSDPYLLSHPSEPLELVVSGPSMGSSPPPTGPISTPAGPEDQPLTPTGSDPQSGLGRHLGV
T5 sequence (Q8NHL6 other isoform, or with tags, fused parts or gaps limits assumed): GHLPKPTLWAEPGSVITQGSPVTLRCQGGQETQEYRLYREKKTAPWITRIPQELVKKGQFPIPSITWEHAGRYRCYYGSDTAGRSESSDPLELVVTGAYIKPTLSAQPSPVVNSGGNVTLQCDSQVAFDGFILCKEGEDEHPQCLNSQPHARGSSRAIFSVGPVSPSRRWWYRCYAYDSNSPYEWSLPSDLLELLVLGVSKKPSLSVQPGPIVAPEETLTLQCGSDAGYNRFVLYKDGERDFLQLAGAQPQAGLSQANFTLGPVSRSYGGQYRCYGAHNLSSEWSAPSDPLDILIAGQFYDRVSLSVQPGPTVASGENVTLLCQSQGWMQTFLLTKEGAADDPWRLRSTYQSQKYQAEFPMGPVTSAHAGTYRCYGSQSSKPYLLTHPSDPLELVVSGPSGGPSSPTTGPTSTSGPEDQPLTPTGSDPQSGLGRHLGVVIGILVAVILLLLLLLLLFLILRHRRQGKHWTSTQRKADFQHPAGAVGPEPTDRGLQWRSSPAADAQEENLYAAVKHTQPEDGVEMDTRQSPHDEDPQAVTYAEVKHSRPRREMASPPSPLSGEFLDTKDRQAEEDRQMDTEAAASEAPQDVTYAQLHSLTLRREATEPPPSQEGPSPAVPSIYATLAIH
T7 sequence (Q8NHL6 other isoform, or with tags, fused parts or gaps H02H H02H): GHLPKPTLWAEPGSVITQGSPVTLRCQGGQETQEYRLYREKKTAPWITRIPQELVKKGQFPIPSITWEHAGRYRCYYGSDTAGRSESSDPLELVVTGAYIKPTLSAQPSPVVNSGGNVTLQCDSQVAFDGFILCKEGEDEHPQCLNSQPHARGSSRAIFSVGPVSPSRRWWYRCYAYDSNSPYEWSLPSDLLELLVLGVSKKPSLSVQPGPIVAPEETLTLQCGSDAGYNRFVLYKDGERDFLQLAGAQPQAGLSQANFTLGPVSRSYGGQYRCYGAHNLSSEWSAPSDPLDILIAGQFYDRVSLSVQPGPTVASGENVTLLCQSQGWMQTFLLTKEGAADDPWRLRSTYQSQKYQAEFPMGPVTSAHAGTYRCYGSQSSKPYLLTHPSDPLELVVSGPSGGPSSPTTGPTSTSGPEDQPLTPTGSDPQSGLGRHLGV
T9 sequence (O75023 24-590 limits assumed): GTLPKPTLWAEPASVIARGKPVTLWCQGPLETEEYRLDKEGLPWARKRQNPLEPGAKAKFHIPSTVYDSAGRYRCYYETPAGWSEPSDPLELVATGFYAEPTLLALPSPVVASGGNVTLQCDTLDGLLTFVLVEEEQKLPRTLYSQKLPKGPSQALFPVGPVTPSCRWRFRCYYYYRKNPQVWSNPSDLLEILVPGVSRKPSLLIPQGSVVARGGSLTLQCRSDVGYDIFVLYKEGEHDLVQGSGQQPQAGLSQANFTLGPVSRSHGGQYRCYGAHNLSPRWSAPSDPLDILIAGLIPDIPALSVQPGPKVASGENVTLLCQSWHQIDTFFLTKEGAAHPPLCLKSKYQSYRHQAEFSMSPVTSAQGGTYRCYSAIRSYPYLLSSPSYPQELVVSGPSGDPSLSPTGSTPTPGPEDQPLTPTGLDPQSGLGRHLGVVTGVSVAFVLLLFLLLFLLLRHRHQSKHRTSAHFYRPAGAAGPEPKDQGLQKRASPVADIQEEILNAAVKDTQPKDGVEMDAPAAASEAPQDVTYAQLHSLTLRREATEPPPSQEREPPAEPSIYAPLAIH
T8 sequence (O75019 17-489): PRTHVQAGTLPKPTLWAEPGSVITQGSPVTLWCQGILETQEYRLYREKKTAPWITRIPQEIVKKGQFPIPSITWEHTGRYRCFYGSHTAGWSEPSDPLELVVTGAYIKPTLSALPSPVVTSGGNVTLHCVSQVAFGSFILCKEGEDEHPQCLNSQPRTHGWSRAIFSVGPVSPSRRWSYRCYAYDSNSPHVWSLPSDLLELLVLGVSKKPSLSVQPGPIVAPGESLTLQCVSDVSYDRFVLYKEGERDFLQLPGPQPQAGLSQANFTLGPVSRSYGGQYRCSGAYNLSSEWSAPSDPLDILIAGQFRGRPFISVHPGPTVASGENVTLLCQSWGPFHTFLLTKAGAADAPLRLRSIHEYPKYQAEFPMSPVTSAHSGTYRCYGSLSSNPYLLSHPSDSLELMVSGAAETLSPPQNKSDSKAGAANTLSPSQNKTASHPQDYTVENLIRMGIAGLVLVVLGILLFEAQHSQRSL
T10 sequence (A6NI73 42-299 limits assumed): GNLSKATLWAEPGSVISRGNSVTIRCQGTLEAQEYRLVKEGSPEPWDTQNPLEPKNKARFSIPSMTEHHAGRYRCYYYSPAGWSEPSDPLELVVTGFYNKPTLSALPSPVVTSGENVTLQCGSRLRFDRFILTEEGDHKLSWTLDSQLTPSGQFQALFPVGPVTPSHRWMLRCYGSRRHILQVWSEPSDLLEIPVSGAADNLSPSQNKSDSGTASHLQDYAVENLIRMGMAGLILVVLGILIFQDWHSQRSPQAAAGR

B1: D2M002-002 (antibody, V domains shown)
VH: EVQLQQSGPELVKPGASVKMSCKASGYTFTRYVMHWVKQKPGQGLEWIGYINPNNDGTKYNEKFKGKVTLTSDKSSSTAYMELSSLTSEDSAVYYCARGDLEILPYYDHARNAMDYWGQGTSVTVSS
VL: DVQMIQSPASLSASVGETVTITCRASENIYSYLAWYQQKQGKSPQLLVYNAKTLAEGVPSRFSGSGSGTQFSLKINSLQPEDFGSYYCQHFWSTPPTFGGGTKLEIK
notes: Hit from immunised mice; also called clone #2; anti-LILRB1/2 clone #2
In the case of B1, the EC50 [1] is reported as 4 µg/mL and 26.6 nM, the Kd [2] is reported as 0.469 nM and the Kd [3] is reported as 1.36 nM. The EC50 [4] was 5.5 µg/mL, the EC50 [5] was 0.326 µg/mL and the EC50 [6] was 0.439 µg/mL. The “gMFI (max)” value [6] was 35700, the EC50 [7] was 0.21 µg/mL and the “gMFI (max)” value [7] was 21900. For the same binder, the “EC50 (read off the curve)” value [8] was ~0.3 µg/mL, the Kd [9] was 3.45 nM and the Kd [10] was 0.242 nM. It also gave a Kd [11] of 0.351 nM, a Kd [12] of 3.13 nM and a Kd [13] of 0.286 nM. The EC50 [14] was 0.218 µg/mL, the MaxMFI [14] was 110000 and the EC50 [15] was 0.128 µg/mL. For the same binder, the MaxMFI [15] was 32600, the EC50 [16] was 2.85 µg/mL and the “IC50 (read off the curve)” value [17] was ~0.06 µg/mL. The IC50 [18] was 0.065 µg/mL, the “EC50 (read off the curve)” value [19] was ~0.2 µg/mL and the “EC50 (read off the curve)” value [20] was ~0.5 µg/mL. B1: no binding (tested: 5 µg/mL) [21]; no binding (tested: 5 µg/mL) [22]; binds [23].
